Patent publication US20180155451A1 (published 2018)

T1: FcγRIIb extracellular domain with C-terminal His tag (human, UniProt P31994 43-217)
T1 construct: extracellular domain; also called FcgRIIb; 2b; not shown: His tag at the C terminus
T1 sequence (looked up): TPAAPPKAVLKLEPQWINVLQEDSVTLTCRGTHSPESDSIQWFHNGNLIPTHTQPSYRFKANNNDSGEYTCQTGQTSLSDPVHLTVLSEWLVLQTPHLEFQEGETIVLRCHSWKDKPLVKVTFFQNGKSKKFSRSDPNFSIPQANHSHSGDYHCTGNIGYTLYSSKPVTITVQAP

B1: GpH7-A5/GpH7-B3 variant P238_08L/GpL16-k0 (heterodimerized antibody, He Ab) (antibody, human IgG1, kappa)
heavy 1: not shown
heavy 2: not shown
light: DIVMTQSPLSLPVTPGEPASISCQASESLVHSNRNTYLHWYLQKPGQSPQLLIYKVSNRFSGVPDRFSGSGSGTDFTLKISRVEAEDVGVYYCSQNTHVPPTFGQGTKVEIERTVAAPSVFIFPPSDEQLKSGTASVVCLLNNFYPREAKVQWKVDNALQSGNSQESVTEQDSKDSTYSLSSTLTLSKADYEKHKVYACEVTHQGLSSPVTKSFNRGEC
notes: Anti-glypican-3 IgG1; the alteration is in the GpH7-B3 chain only; also called P238L
B2: GpH7-A5/GpH7-B3 variant L235_09D/GpL16-k0 (heterodimerized antibody, He Ab) (antibody, human IgG1, kappa)
heavy 1: not shown
heavy 2: not shown
light: B1 light
notes: Anti-glypican-3 IgG1; the alteration is in the GpH7-B3 chain only; also called L235D
B3: GpH7-A5/GpH7-B3 variant S267_06M/GpL16-k0 (heterodimerized antibody, He Ab) (antibody, human IgG1, kappa)
heavy 1: not shown
heavy 2: not shown
light: B1 light
notes: Anti-glypican-3 IgG1; the alteration is in the GpH7-B3 chain only; also called S267M
B4: GpH7-A5/GpH7-B3 variant G237_18N/GpL16-k0 (heterodimerized antibody, He Ab) (antibody, human IgG1, kappa)
heavy 1: not shown
heavy 2: not shown
light: B1 light
notes: Anti-glypican-3 IgG1; the alteration is in the GpH7-B3 chain only; also called G237N
B5: GpH7-A5/GpH7-B3 variant P238_20W/GpL16-k0 (heterodimerized antibody, He Ab) (antibody, human IgG1, kappa)
heavy 1: not shown
heavy 2: not shown
light: B1 light
notes: Anti-glypican-3 IgG1; the alteration is in the GpH7-B3 chain only; also called P238W
B6: GpH7-A5/GpH7-B3 variant S267_03V/GpL16-k0 (heterodimerized antibody, He Ab) (antibody, human IgG1, kappa)
heavy 1: not shown
heavy 2: not shown
light: B1 light
notes: Anti-glypican-3 IgG1; the alteration is in the GpH7-B3 chain only; also called S267V
B7: GpH7-A5/GpH7-B3 variant S267_07I/GpL16-k0 (heterodimerized antibody, He Ab) (antibody, human IgG1, kappa)
heavy 1: not shown
heavy 2: not shown
light: B1 light
notes: Anti-glypican-3 IgG1; the alteration is in the GpH7-B3 chain only; also called S267I
B8: GpH7-A5/GpH7-B3 variant G237_10E/GpL16-k0 (heterodimerized antibody, He Ab) (antibody, human IgG1, kappa)
heavy 1: not shown
heavy 2: not shown
light: B1 light
notes: Anti-glypican-3 IgG1; the alteration is in the GpH7-B3 chain only; also called G237E
B9: GpH7-A5/GpH7-B3 variant P238_16H/GpL16-k0 (heterodimerized antibody, He Ab) (antibody, human IgG1, kappa)
heavy 1: not shown
heavy 2: not shown
light: B1 light
notes: Anti-glypican-3 IgG1; the alteration is in the GpH7-B3 chain only; also called P238H
B10: GpH7-A5/GpH7-B3 variant G237_08L/GpL16-k0 (heterodimerized antibody, He Ab) (antibody, human IgG1, kappa)
heavy 1: not shown
heavy 2: not shown
light: B1 light
notes: Anti-glypican-3 IgG1; the alteration is in the GpH7-B3 chain only; also called G237L
B11: GpH7-A5/GpH7-B3 variant P238_12R/GpL16-k0 (heterodimerized antibody, He Ab) (antibody, human IgG1, kappa)
heavy 1: not shown
heavy 2: not shown
light: B1 light
notes: Anti-glypican-3 IgG1; the alteration is in the GpH7-B3 chain only; also called P238R
B12: GpH7-A5/GpH7-B3 variant P238_19Q/GpL16-k0 (heterodimerized antibody, He Ab) (antibody, human IgG1, kappa)
heavy 1: not shown
heavy 2: not shown
light: B1 light
notes: Anti-glypican-3 IgG1; the alteration is in the GpH7-B3 chain only; also called P238Q
B13: GpH7-A5/GpH7-B3 variant S239_05P/GpL16-k0 (heterodimerized antibody, He Ab) (antibody, human IgG1, kappa)
heavy 1: not shown
heavy 2: not shown
light: B1 light
notes: Anti-glypican-3 IgG1; the alteration is in the GpH7-B3 chain only; also called S239P
B14: GpH7-A5/GpH7-B3 variant G237_15Y/GpL16-k0 (heterodimerized antibody, He Ab) (antibody, human IgG1, kappa)
heavy 1: not shown
heavy 2: not shown
light: B1 light
notes: Anti-glypican-3 IgG1; the alteration is in the GpH7-B3 chain only; also called G237Y
B15: GpH7-A5/GpH7-B3 variant P238_07I/GpL16-k0 (heterodimerized antibody, He Ab) (antibody, human IgG1, kappa)
heavy 1: not shown
heavy 2: not shown
light: B1 light
notes: Anti-glypican-3 IgG1; the alteration is in the GpH7-B3 chain only; also called P238I
B16: GpH7-A5/GpH7-B3 variant L235_20W/GpL16-k0 (heterodimerized antibody, He Ab) (antibody, human IgG1, kappa)
heavy 1: not shown
heavy 2: not shown
light: B1 light
notes: Anti-glypican-3 IgG1; the alteration is in the GpH7-B3 chain only; also called L235W
B17: GpH7-A5/GpH7-B3 variant S239_03V/GpL16-k0 (heterodimerized antibody, He Ab) (antibody, human IgG1, kappa)
heavy 1: not shown
heavy 2: not shown
light: B1 light
notes: Anti-glypican-3 IgG1; the alteration is in the GpH7-B3 chain only; also called S239V
B18: GpH7-A5/GpH7-B3 variant P238_10E/GpL16-k0 (heterodimerized antibody, He Ab) (antibody, human IgG1, kappa)
heavy 1: not shown
heavy 2: not shown
light: B1 light
notes: Anti-glypican-3 IgG1; the alteration is in the GpH7-B3 chain only; also called P238E
B19: GpH7-A5/GpH7-B3 variant S239_01G/GpL16-k0 (heterodimerized antibody, He Ab) (antibody, human IgG1, kappa)
heavy 1: not shown
heavy 2: not shown
light: B1 light
notes: Anti-glypican-3 IgG1; also called S239G
B20: GpH7-A5/GpH7-B3 variant P238_02A/GpL16-k0 (heterodimerized antibody, He Ab) (antibody, human IgG1, kappa)
heavy 1: not shown
heavy 2: not shown
light: B1 light
notes: Anti-glypican-3 IgG1; the alteration is in the GpH7-B3 chain only; also called P238A
B21: GpH7-A5/GpH7-B3 variant G237_13S/GpL16-k0 (heterodimerized antibody, He Ab) (antibody, human IgG1, kappa)
heavy 1: not shown
heavy 2: not shown
light: B1 light
notes: Anti-glypican-3 IgG1; the alteration is in the GpH7-B3 chain only; also called G237S
B22: GpH7-A5/GpH7-B3 variant S267_01G/GpL16-k0 (heterodimerized antibody, He Ab) (antibody, human IgG1, kappa)
heavy 1: not shown
heavy 2: not shown
light: B1 light
notes: Anti-glypican-3 IgG1; the alteration is in the GpH7-B3 chain only; also called S267G

molecular target: T2, FcγRIIIa extracellular domain with C-terminal His tag (human, UniProt P08637 17-208); assay: SPR (Biacore), captured antibody, FcγR as analyte; relative to GpH7-A5/GpH7-B3/GpL16-k0 = 100
T2 construct: extracellular domain; also called FcgRIIIa; 3a; not shown: His tag at the C terminus
Protocol: (§1) Analysis of interaction between objective antibody and the FcγR was carried out using Biacore T100 (GE Healthcare). HBS-EP+ (GE Healthcare) was used as the running buffer, and the measurement temperature was set to 25° C. Chips produced by immobilizing the antigen peptide by the amine coupling method to a Series S Sencor Chip CM5 (GE Healthcare), or alternatively, chips produced by allowing preliminarily biotinylated antigen peptides to interact with and immobilize onto a Series S Sensor Chip SA (certified) (GE Healthcare) were used. Antibodies of interest were captured onto an antigen peptide-immobilized chip, and allowed to interact to each FcγR diluted with running buffer. To regenerate and repeatedly use the chip, the antibodies captured on the chip were washed off by reacting 10 mM glycine-HCl, pH 1.5.
(§2) The FcγR-binding activity of each antibody was assessed primarily using as an indicator the FcγR-binding activity and dissociation constant for FcγR.

T2 sequence (P08637 17-208): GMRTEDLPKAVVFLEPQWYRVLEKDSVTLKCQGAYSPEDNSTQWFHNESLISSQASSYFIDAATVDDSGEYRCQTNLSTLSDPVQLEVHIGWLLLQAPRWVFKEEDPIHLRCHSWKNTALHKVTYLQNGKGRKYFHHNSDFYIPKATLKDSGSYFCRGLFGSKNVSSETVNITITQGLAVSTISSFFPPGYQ

Binder | He/Con_3a (IIIa binding)
B1 | 75.5 % of HeCon Ab
B2 | 91.6 % of HeCon Ab
B3 | 66 % of HeCon Ab
B4 | 20.3 % of HeCon Ab
B5 | 49.7 % of HeCon Ab
B6 | 30.8 % of HeCon Ab
B7 | 25.2 % of HeCon Ab
B8 | 25.4 % of HeCon Ab
B9 | 30.7 % of HeCon Ab
B10 | 24.9 % of HeCon Ab
B11 | 12.2 % of HeCon Ab
B12 | 55.8 % of HeCon Ab
B13 | 14.9 % of HeCon Ab
B14 | 22.1 % of HeCon Ab
B15 | 27.8 % of HeCon Ab
B16 | 76.4 % of HeCon Ab
B17 | 76.6 % of HeCon Ab
B18 | 105 % of HeCon Ab
B19 | 76.2 % of HeCon Ab
B20 | 31.4 % of HeCon Ab
B21 | 38.4 % of HeCon Ab
B22 | 53.8 % of HeCon Ab

molecular target: T1, FcγRIIb extracellular domain with …; assay: as above
Protocol: as §1, §2

Binder | He/Con_2b (IIb binding)
B1 | 204 % of HeCon Ab
B2 | 106 % of HeCon Ab
B3 | 210 % of HeCon Ab
B4 | 180 % of HeCon Ab
B5 | 123 % of HeCon Ab
B6 | 192 % of HeCon Ab
B7 | 192 % of HeCon Ab
B8 | 114 % of HeCon Ab
B9 | 115 % of HeCon Ab
B10 | 148 % of HeCon Ab
B11 | 51.4 % of HeCon Ab
B12 | 110 % of HeCon Ab
B13 | 102 % of HeCon Ab
B14 | 152 % of HeCon Ab
B15 | 80 % of HeCon Ab
B16 | 147 % of HeCon Ab
B17 | 108 % of HeCon Ab
B18 | 232 % of HeCon Ab
B19 | 144 % of HeCon Ab
B20 | 57.4 % of HeCon Ab
B21 | 111 % of HeCon Ab
B22 | 105 % of HeCon Ab
